{"source": "paper PMC12720783", "target": "LcrG, full length (Yersinia pseudotuberculosis) (UniProt P69958)", "sequence (P69958 whole entry)": "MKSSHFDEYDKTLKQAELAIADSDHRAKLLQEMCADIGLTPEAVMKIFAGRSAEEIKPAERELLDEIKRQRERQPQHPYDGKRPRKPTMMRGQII", "assay": "ITC", "data": [{"substance": "LcrV, full length (from UniProt P23994 1-326) (natural protein)", "values": [{"measurement": "stoichiometry N", "value": 1}]}]}
